We go through 125 sequences from the supplement of paper PMC9112550, “Optimization of the antimicrobial peptide Bac7 by deep mutational scanning” (BMC Biology, 2022).

For the data set, the system named is Escherichia coli TOP10. The data set is described as follows: shrunken log2 fold change of peptide-encoding DNA abundance (4.5 h post-induction vs induction); higher = less antimicrobial activity (less host growth inhibition). The conditions noted are these: time post-induction: 4.5 h; library: site-saturation at positions 5, 18, 19, 20.
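Note: peptides expressed intracellularly from a pBAD plasmid library in pooled LB shake-flask culture, induced with 0.3% L-arabinose, DNA abundance read by NGS, three biological replicates, DESeq2 with apeglm shrinkage.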

Turning to RRIRGRPPRLPRPRPRPPCWPRP, the “shrunken log2 fold change” value stood at 1.09. RRIRLRPPRLPRPRPRPSCAPRP: the “shrunken log2 fold change” value is -0.00959.

On to RRIRIRPPRLPRPRPRPHKSPRP, for which the “shrunken log2 fold change” value is -1.18.

As for RRIRLRPPRLPRPRPRPNYFPRP, the “shrunken log2 fold change” value is -0.121.

Consider RRIRRRPPRLPRPRPRPKYCPRP, for which the “shrunken log2 fold change” value amounted to 0.0144.

For the sequence RRIRTRPPRLPRPRPRPYYSPRP, the “shrunken log2 fold change” value was -0.274. Regarding RRIRTRPPRLPRPRPRPNIHPRP, the “shrunken log2 fold change” value is -0.586. Under RRIRLRPPRLPRPRPRPSCIPRP stands -0.461; under RRIRKRPPRLPRPRPRPMWHPRP, -0.183. As for RRIRFRPPRLPRPRPRPNRQPRP, the “shrunken log2 fold change” value was -0.564. As to RRIRERPPRLPRPRPRPDNMPRP, the “shrunken log2 fold change” value was -0.2.

Regarding RRIRMRPPRLPRPRPRPAGIPRP, the “shrunken log2 fold change” value is -0.000742.

Consider RRIRTRPPRLPRPRPRPRAGPRP, for which the “shrunken log2 fold change” value came to 0.41. For RRIRYRPPRLPRPRPRPFLKPRP, the “shrunken log2 fold change” value was -0.122. With RRIRTRPPRLPRPRPRPHKYPRP, the “shrunken log2 fold change” value is -0.295. For the sequence RRIRPRPPRLPRPRPRPEVMPRP, the “shrunken log2 fold change” value came to 0.462.

Turning to RRIRHRPPRLPRPRPRPHNLPRP, the “shrunken log2 fold change” value came out at 0.0201. Under RRIRYRPPRLPRPRPRPYSFPRP stands -0.106. For RRIRKRPPRLPRPRPRPMGDPRP the value was 0.153. For RRIRQRPPRLPRPRPRPEDWPRP the value was -0.106; for RRIRWRPPRLPRPRPRPAPFPRP, 0.0259.

As for RRIRLRPPRLPRPRPRPMGGPRP, the “shrunken log2 fold change” value turned out to be 0.26.

Turning to RRIRTRPPRLPRPRPRPACGPRP, the “shrunken log2 fold change” value is 0.282. For RRIRARPPRLPRPRPRPPCGPRP the value was 0.443; for RRIRQRPPRLPRPRPRPHFKPRP, -0.332. Turning to RRIRARPPRLPRPRPRPLTAPRP, the “shrunken log2 fold change” value was found to be 0.542. Turning to RRIRCRPPRLPRPRPRPRDHPRP, the “shrunken log2 fold change” value was 0.197. For RRIRVRPPRLPRPRPRPGHNPRP the value was -0.131; for RRIRVRPPRLPRPRPRPMWEPRP, 0.0553; for RRIRTRPPRLPRPRPRPSFVPRP, -0.488. For RRIRHRPPRLPRPRPRPAVKPRP the value was -0.0915; for RRIRLRPPRLPRPRPRPGCFPRP, 0.269; for RRIRLRPPRLPRPRPRPEENPRP, -0.00256. In the case of RRIRSRPPRLPRPRPRPKDFPRP, the “shrunken log2 fold change” value is 0.0212.

For the sequence RRIRLRPPRLPRPRPRPTFMPRP, the “shrunken log2 fold change” value was -0.305. As to RRIRGRPPRLPRPRPRPGSEPRP, the “shrunken log2 fold change” value stood at 0.864.

On to RRIRHRPPRLPRPRPRPFLRPRP, for which the “shrunken log2 fold change” value was -0.173. Take RRIRARPPRLPRPRPRPRILPRP: the “shrunken log2 fold change” value was 0.323. For RRIRRRPPRLPRPRPRPKMPPRP the value was 0.191; for RRIRTRPPRLPRPRPRPNVFPRP, 0.0305; for RRIRRRPPRLPRPRPRPGIWPRP, 0.455. For RRIRVRPPRLPRPRPRPFHYPRP the value was -0.318; for RRIRCRPPRLPRPRPRPRQPPRP, 0.249. On to RRIRARPPRLPRPRPRPMGYPRP, for which the “shrunken log2 fold change” value came to 0.0315. For RRIRCRPPRLPRPRPRPKSDPRP the value was 0.0327; for RRIRPRPPRLPRPRPRPNRLPRP, -0.0308. Under RRIRQRPPRLPRPRPRPWETPRP stands -0.00136; under RRIRQRPPRLPRPRPRPLDGPRP, 0.237; under RRIRMRPPRLPRPRPRPSMCPRP, 0.0724. For RRIRTRPPRLPRPRPRPWAAPRP the value was -0.0363; for RRIRCRPPRLPRPRPRPCQIPRP, 0.0258; for RRIRRRPPRLPRPRPRPFTAPRP, 0.128. Take RRIRARPPRLPRPRPRPGDSPRP: the “shrunken log2 fold change” value worked out at 0.339.

As for RRIRDRPPRLPRPRPRPAQMPRP, the “shrunken log2 fold change” value was 1.2. Under RRIRERPPRLPRPRPRPFAWPRP stands 0.143; under RRIRPRPPRLPRPRPRPKSDPRP, 0.0265. On to RRIRARPPRLPRPRPRPNCVPRP, for which the “shrunken log2 fold change” value was 0.23. Under RRIRHRPPRLPRPRPRPWSDPRP stands -0.138.

RRIRQRPPRLPRPRPRPCWFPRP: the “shrunken log2 fold change” value was -0.257.

As for RRIRMRPPRLPRPRPRPCTTPRP, the “shrunken log2 fold change” value was determined as 0.104. As to RRIRDRPPRLPRPRPRPRWIPRP, the “shrunken log2 fold change” value was -0.376. For RRIRKRPPRLPRPRPRPMQQPRP the value was -0.000844; for RRIRSRPPRLPRPRPRPINFPRP, -0.168. As for RRIRHRPPRLPRPRPRPNELPRP, the “shrunken log2 fold change” value came to 0.031.

Take RRIRIRPPRLPRPRPRPFWPPRP: the “shrunken log2 fold change” value is -0.056. On to RRIRNRPPRLPRPRPRPHVWPRP, for which the “shrunken log2 fold change” value turned out to be 0.0415. For RRIRNRPPRLPRPRPRPLWCPRP the value was -0.0608; for RRIRLRPPRLPRPRPRPRRAPRP, 0.585.

RRIRHRPPRLPRPRPRPNEDPRP: the “shrunken log2 fold change” value is -0.081.

On to RRIRQRPPRLPRPRPRPLNWPRP, for which the “shrunken log2 fold change” value is -0.133. Regarding RRIRIRPPRLPRPRPRPGTYPRP, the “shrunken log2 fold change” value was -0.0378. For RRIRIRPPRLPRPRPRPAHPPRP the value was 0.239. Turning to RRIRGRPPRLPRPRPRPPRIPRP, the “shrunken log2 fold change” value was determined as 0.719. Consider RRIRFRPPRLPRPRPRPQFRPRP, for which the “shrunken log2 fold change” value was -0.174. As for RRIRARPPRLPRPRPRPYHGPRP, the “shrunken log2 fold change” value was -1.67. Under RRIRKRPPRLPRPRPRPDMRPRP stands 0.0676; under RRIRARPPRLPRPRPRPCMDPRP, 0.0143; under RRIRIRPPRLPRPRPRPNFHPRP, -0.52. For RRIRWRPPRLPRPRPRPQTHPRP, the “shrunken log2 fold change” value was 1. For RRIRKRPPRLPRPRPRPSSDPRP the value was 0.246.

Regarding RRIRPRPPRLPRPRPRPAKTPRP, the “shrunken log2 fold change” value was -0.168. Under RRIRTRPPRLPRPRPRPTVCPRP stands -0.509; under RRIRQRPPRLPRPRPRPMQPPRP, 0.0113; under RRIRKRPPRLPRPRPRPWTFPRP, 0.489. As for RRIRMRPPRLPRPRPRPIMMPRP, the “shrunken log2 fold change” value was -0.00663.

Regarding RRIRDRPPRLPRPRPRPTFNPRP, the “shrunken log2 fold change” value was -0.0925. For the sequence RRIRSRPPRLPRPRPRPVKSPRP, the “shrunken log2 fold change” value is -0.127.

For the sequence RRIRMRPPRLPRPRPRPKSTPRP, the “shrunken log2 fold change” value worked out at 1.44. Under RRIRNRPPRLPRPRPRPLIEPRP stands -0.284; under RRIRLRPPRLPRPRPRPDRHPRP, -0.279; under RRIRTRPPRLPRPRPRPQQDPRP, -0.18. As to RRIRERPPRLPRPRPRPTQRPRP, the “shrunken log2 fold change” value was 0.0475. In the case of RRIRGRPPRLPRPRPRPHMHPRP, the “shrunken log2 fold change” value came out at 0.448.

On to RRIRCRPPRLPRPRPRPDEQPRP, for which the “shrunken log2 fold change” value is -0.00573. For RRIRARPPRLPRPRPRPFEQPRP the value was -0.072; for RRIRKRPPRLPRPRPRPWDPPRP, -0.235. As for RRIRKRPPRLPRPRPRPYSFPRP, the “shrunken log2 fold change” value is -0.119. Consider RRIRYRPPRLPRPRPRPILLPRP, for which the “shrunken log2 fold change” value was -0.322. Regarding RRIRQRPPRLPRPRPRPWPRPRP, the “shrunken log2 fold change” value worked out at 0.014. Take RRIRTRPPRLPRPRPRPHNSPRP: the “shrunken log2 fold change” value is -1.22. For RRIRCRPPRLPRPRPRPYSDPRP the value was -0.0426. For RRIRWRPPRLPRPRPRPGPEPRP the value was 0.809; for RRIRPRPPRLPRPRPRPNGTPRP, 0.247; for RRIRYRPPRLPRPRPRPPQHPRP, -0.171.

For RRIRMRPPRLPRPRPRPKVAPRP, the “shrunken log2 fold change” value was -0.0166.

Regarding RRIRDRPPRLPRPRPRPWCRPRP, the “shrunken log2 fold change” value came out at 0.0772.

With RRIRNRPPRLPRPRPRPLCQPRP, the “shrunken log2 fold change” value was -0.307. Under RRIRCRPPRLPRPRPRPVRDPRP stands 0.238.

As for RRIRMRPPRLPRPRPRPELSPRP, the “shrunken log2 fold change” value was determined as 0.0644.

In the case of RRIRSRPPRLPRPRPRPMLEPRP, the “shrunken log2 fold change” value is -0.0898.

As for RRIRRRPPRLPRPRPRPTQMPRP, the “shrunken log2 fold change” value is 0.694. For RRIRFRPPRLPRPRPRPGFCPRP the value was -0.179; for RRIRWRPPRLPRPRPRPHFRPRP, 0.0695; for RRIRRRPPRLPRPRPRPQFMPRP, -0.139. Under RRIRRRPPRLPRPRPRPGLNPRP stands -0.0395; under RRIRHRPPRLPRPRPRPTFFPRP, 0.0852. RRIRKRPPRLPRPRPRPNYWPRP: the “shrunken log2 fold change” value turned out to be 0.157.

Regarding RRIRKRPPRLPRPRPRPWDTPRP, the “shrunken log2 fold change” value is -0.00122. Under RRIRRRPPRLPRPRPRPEWGPRP stands 0.0686; under RRIRFRPPRLPRPRPRPKTAPRP, 0.295; under RRIRSRPPRLPRPRPRPDFCPRP, 0.0315. Take RRIRWRPPRLPRPRPRPAEHPRP: the “shrunken log2 fold change” value was -0.0393. For RRIRVRPPRLPRPRPRPTLSPRP, the “shrunken log2 fold change” value is -0.0525. Take RRIRRRPPRLPRPRPRPSFYPRP: the “shrunken log2 fold change” value was -0.36.

As for RRIRPRPPRLPRPRPRPFMSPRP, the “shrunken log2 fold change” value is -0.384.
